From US20180250415A1 (Scripps Research, published 2018) come the findings set out here.

The target of one experiment is T1, CD138 (human, UniProt P18827 23-310).
T1 construct: whole, on cells; also called CD138 on H929 and U266 cells
T1 sequence (looked up): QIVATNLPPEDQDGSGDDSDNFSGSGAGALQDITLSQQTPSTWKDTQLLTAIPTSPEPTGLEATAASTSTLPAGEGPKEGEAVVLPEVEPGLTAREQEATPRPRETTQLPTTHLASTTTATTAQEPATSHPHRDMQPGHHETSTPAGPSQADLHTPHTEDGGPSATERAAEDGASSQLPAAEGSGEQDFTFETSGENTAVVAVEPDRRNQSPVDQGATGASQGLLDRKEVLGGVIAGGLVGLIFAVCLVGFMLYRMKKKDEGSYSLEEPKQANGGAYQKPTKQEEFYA
The experiment is described as follows: flow cytometry on H929 and U266 (CD138+) cells, detected with 647-conjugated F(ab')2 donkey anti-human Fc [CONT.]. As to the method:
(§1) The binding activities of these DVDs are also tested against target expressing cells. […] The cells are washed with 200 μL flow cytometry buffer (PBS, 2% (w/v) FBS, pH 7.4), are incubated with DVD1 or DVD2 for 30 min on ice, are washed with 200 μL flow cytometry buffer, and are stained with 647 conjugated polyclonal (Fab′)₂ donkey anti-human Fc (Jackson ImmunoResearch Laboratories) for 20 min on ice. After washing twice with 200 μL ice-cold flow cytometry buffer, the cells are analyzed using a Canto II Flow Cytometer (Becton-Dickinson). Data were analyzed using FlowJo software (Tree Star).

For a further experiment, the target named is T2, HER2 (human, UniProt P04626 23-1255).
T2 construct: whole, on cells; also called ERBB2; HER2 on SK-BR-3 (SKBR3) cells
The experiment is described as follows: flow cytometry on SK-BR-3 (SKBR3, HER2+) cells, detected with 647-conjugated F(ab')2 donkey anti-human Fc. As to the method:
as §1
(A flow cytometer gives signals particle by particle.)

The next experiment has as its target T3, CD79b (UniProt P40259 29-229, limits assumed).
T3 construct: whole, on cells; also called CD79b on Ramos cells
T3 sequence (looked up): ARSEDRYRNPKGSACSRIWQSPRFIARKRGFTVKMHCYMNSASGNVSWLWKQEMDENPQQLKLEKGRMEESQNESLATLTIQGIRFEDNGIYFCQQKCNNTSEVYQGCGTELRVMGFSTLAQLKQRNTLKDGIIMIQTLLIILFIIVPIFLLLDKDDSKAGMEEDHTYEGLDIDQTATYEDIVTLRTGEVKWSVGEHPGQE
The experiment is described as follows: flow cytometry on Ramos (CD79b+) cells, detected with 647-conjugated F(ab')2 donkey anti-human Fc [CONT.]. The procedure:
as §1

B1: CD138-h38C2-DVD1 immunoglobulin (antibody, human IgG1, kappa)
light: DIQMTQSTSSLSASLGDRVTISCSASQGINNYLNWYQQKPDGTVELLIYYTSTLQSGVPSRFSGSGSGTDYSLTISNLEPEDIGTYYCQQYSKLPRTFGGGTKLEIKASTKGPELQMTQSPSSLSASVGDRVTITCRSSQSLLHTYGSPYLNWYLQKPGQSPKLLIYKVSNRFSGVPSRFSGSGSGTDFTLTISSLQPEDFAVYFCSQGTHLPYTFGGGTKVEIKRTVAAPSVFIFPPSDEQLKSGTASVVCLLNNFYPREAKVQWKVDNALQSGNSQESVTEQDSKDSTYSLSSTLTLSKADYEKHKVYACEVTHQGLSSPVTKSFNRGEC
heavy: not shown
notes: also called CD138 DVD; anti-CD138 DVD1
Take B1: the binding result with CD138 is reported as “binds”.

B2: h38C2 IgG1 (antibody, V domains shown)
VH: EVQLVESGGGLVQPGGSLRLSCAASGFTFSNYWMSWVRQSPEKGLEWVSEIRLRSDNYATHYAESVKGRFTISRDNSKNTLYLQMNSLRAEDTGIYYCKTYFYSFSYWGQGTLVTVSS
VL: ELQMTQSPSSLSASVGDRVTITCRSSQSLLHTYGSPYLNWYLQKPGQSPKLLIYKVSNRFSGVPSRFSGSGSGTDFTLTISSLQPEDFAVYFCSQGTHLPYTFGGGTKVEIK
notes: also called parent h38C2 IgG1; unconjugated humanized 38C2 antibody
For B2, the binding result with HER2, in the experiment with CD79b and with CD138 was “no binding” each time.
